This is an account of results in article PMC9100969, “Structure-Guided Engineering of a Family IV Cold-Adapted Esterase Expands Its Substrate Range” (International Journal of Molecular Sciences, 2022).

Holding throughout (test): purified protein
Common to all, as to type: biochemical, Sutcliffiella cohnii
Common to all, as to conditions: 50 mM Tris-HCl pH 8.0, 20 °C

Substrate in data set [1]: CC(=O)Oc1ccc([N+](=O)[O-])cc1
Substrate in data set [2]: CCCC(=O)Oc1ccc([N+](=O)[O-])cc1
Substrate in data set [3]: CCCCCC(=O)Oc1ccc([N+](=O)[O-])cc1
Substrate in data set [4]: CCCCCCCC(=O)Oc1ccc([N+](=O)[O-])cc1

B1: EstN7 (Sutcliffiella cohnii; W206A) (protein)
chain: MKNRIDPELRAMLDMFPPLNLDDVQATRKAMEEAAQLTELPVDEEVVVSNRMVPGPEDNPYVRVRIYEPKEKIEKLPGLLWIHGGGYVLGAPEGDDLLCQRFVKEANCVVVSVDYRLAPEHPYPAPLEDCYAALQWFAKKVDELGVDASRIGVGGQSAGGGLTAALALLARDRKGPELCFQMPLYPMIDDKNNSPSSLEITGNLIANHDLNEKGWSMYLDGKNGTDDVPVHAAPARATDLTNLPYTYTCVGQLDPFRDETLDYVKRLCQAGVDVEFHLYPGAYHGFETLNPAAAVSQRALAEYVGAVKHVLNREKVVERK
notes: recombinant, purified from E. coli BL21(DE3); dimer; catalytic triad S157, D254, H284
Take B1: in “purified protein [1]”, the Km was found to be 1300 ± 140 µM, the kcat was 1.5 ± 0.07 s⁻¹ and the specificity constant (kcat/Km) was 1190 M⁻¹ s⁻¹. For the same protein, in “purified protein [2]”, the Km is 1200 ± 550 µM, the kcat turned out to be 8 ± 1 s⁻¹ and the kcat/Km came to 6670 M⁻¹ s⁻¹. For the same protein, in the data set “purified protein [3]”, the Km amounted to 1100 ± 70 µM, the catalytic constant (kcat) amounted to 3.8 ± 0.07 s⁻¹ and the kcat/Km was found to be 3350 M⁻¹ s⁻¹.

B2: EstN7 (Sutcliffiella cohnii; M187A/N211A) (protein)
chain: MKNRIDPELRAMLDMFPPLNLDDVQATRKAMEEAAQLTELPVDEEVVVSNRMVPGPEDNPYVRVRIYEPKEKIEKLPGLLWIHGGGYVLGAPEGDDLLCQRFVKEANCVVVSVDYRLAPEHPYPAPLEDCYAALQWFAKKVDELGVDASRIGVGGQSAGGGLTAALALLARDRKGPELCFQMPLYPAIDDKNNSPSSLEITGNLIWNHDLAEKGWSMYLDGKNGTDDVPVHAAPARATDLTNLPYTYTCVGQLDPFRDETLDYVKRLCQAGVDVEFHLYPGAYHGFETLNPAAAVSQRALAEYVGAVKHVLNREKVVERK
notes: as for B1
For the protein B2, the Km in “purified protein [1]” came to 1100 ± 70 µM; in the data set “purified protein [2]”, 370 ± 80 µM; in the data set “purified protein [3]”, 1200 ± 10 µM; in “purified protein [4]”, 950 ± 20 µM. For the same protein, the kcat in the data set “purified protein [1]” came out at 361 ± 0.14 s⁻¹; in the data set “purified protein [2]” it was 17.6 ± 2.1 s⁻¹; in “purified protein [3]”, 24.5 ± 0.7 s⁻¹; in “purified protein [4]”, 0.45 ± 0.02 s⁻¹. For the same protein, the kcat/Km amounted to 328000 M⁻¹ s⁻¹ in “purified protein [1]”, 46800 M⁻¹ s⁻¹ in the data set “purified protein [2]”, 20400 M⁻¹ s⁻¹ in “purified protein [3]” and 473 M⁻¹ s⁻¹ in the data set “purified protein [4]”.

B3: EstN7 (Sutcliffiella cohnii; N211A) (protein)
chain: MKNRIDPELRAMLDMFPPLNLDDVQATRKAMEEAAQLTELPVDEEVVVSNRMVPGPEDNPYVRVRIYEPKEKIEKLPGLLWIHGGGYVLGAPEGDDLLCQRFVKEANCVVVSVDYRLAPEHPYPAPLEDCYAALQWFAKKVDELGVDASRIGVGGQSAGGGLTAALALLARDRKGPELCFQMPLYPMIDDKNNSPSSLEITGNLIWNHDLAEKGWSMYLDGKNGTDDVPVHAAPARATDLTNLPYTYTCVGQLDPFRDETLDYVKRLCQAGVDVEFHLYPGAYHGFETLNPAAAVSQRALAEYVGAVKHVLNREKVVERK
notes: as for B1
Turning to B3, the Km in “purified protein [1]” came out at 750 ± 1 µM; in “purified protein [2]” it was 2000 ± 200 µM; in “purified protein [3]” it was 370 ± 50 µM. The turnover number (kcat) in the data set “purified protein [1]” was found to be 280.5 ± 0.07 s⁻¹; in “purified protein [2]”, 15 ± 0.5 s⁻¹; in the data set “purified protein [3]”, 2.3 ± 0.2 s⁻¹. The kcat/Km in the data set “purified protein [1]” stood at 374000 M⁻¹ s⁻¹; in “purified protein [2]”, 7500 M⁻¹ s⁻¹; in “purified protein [3]” it was 6280 M⁻¹ s⁻¹.

B4: EstN7 (Sutcliffiella cohnii) (protein)
chain: MKNRIDPELRAMLDMFPPLNLDDVQATRKAMEEAAQLTELPVDEEVVVSNRMVPGPEDNPYVRVRIYEPKEKIEKLPGLLWIHGGGYVLGAPEGDDLLCQRFVKEANCVVVSVDYRLAPEHPYPAPLEDCYAALQWFAKKVDELGVDASRIGVGGQSAGGGLTAALALLARDRKGPELCFQMPLYPMIDDKNNSPSSLEITGNLIWNHDLNEKGWSMYLDGKNGTDDVPVHAAPARATDLTNLPYTYTCVGQLDPFRDETLDYVKRLCQAGVDVEFHLYPGAYHGFETLNPAAAVSQRALAEYVGAVKHVLNREKVVERK
notes: as for B1
B4: in “purified protein [1]”, the Michaelis-Menten constant (Km) was 50 ± 7 µM, the kcat stood at 760 ± 3.5 s⁻¹ and the kcat/Km was determined as 1.52e+07 M⁻¹ s⁻¹. Also, in “purified protein [2]”, the Michaelis constant (Km) came to 57 ± 2 µM, the turnover number (kcat) stood at 0.32 ± 0.005 s⁻¹ and the specificity constant (kcat/Km) stood at 5610 M⁻¹ s⁻¹.

A word on the Km: it is the concentration of substrate that gives half-maximal velocity. By kcat is commonly meant the maximal rate divided by the concentration of active sites. Usually kcat/Km stands for the second-order rate constant that governs catalysis at low substrate concentration.
